Target: murine B7-DC (murine) (UniProt Q9WUL5)
Assay: flow cytometry; murine bone marrow derived DC incubated with or without soluble PD-1.Ig, then stained with sHIgM12 (the competitor read out)

Sequence of PD-1.Ig fusion protein (Fc fusion) (Q02242 25-169): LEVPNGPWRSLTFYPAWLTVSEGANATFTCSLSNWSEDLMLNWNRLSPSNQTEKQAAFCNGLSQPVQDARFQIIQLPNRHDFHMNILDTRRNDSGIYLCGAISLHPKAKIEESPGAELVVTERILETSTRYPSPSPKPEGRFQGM
Sequence of murine B7-DC (murine) (Q9WUL5 20-247): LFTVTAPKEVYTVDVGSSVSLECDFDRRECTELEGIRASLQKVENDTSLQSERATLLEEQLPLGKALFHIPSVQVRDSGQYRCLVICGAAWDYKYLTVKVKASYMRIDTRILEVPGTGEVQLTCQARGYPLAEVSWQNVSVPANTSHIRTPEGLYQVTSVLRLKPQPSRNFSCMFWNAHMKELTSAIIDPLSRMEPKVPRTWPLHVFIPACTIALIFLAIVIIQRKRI

sHIgM12 staining left, percent of the level in the absence of PD-1: 50%
Substance: PD-1.Ig fusion protein (Fc fusion)

Source: US20160122431A1
